Measured values reported in the supplement of paper PMC9112550, “Optimization of the antimicrobial peptide Bac7 by deep mutational scanning” (BMC Biology, 2022).

System: Escherichia coli TOP10
Test: shrunken log2 fold change of peptide-encoding DNA abundance (4.5 h post-induction vs induction); higher = less antimicrobial activity (less host growth inhibition)
Conditions: time post-induction: 4.5 h; library: site-saturation at positions 5, 18, 19, 20
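Note: peptides expressed intracellularly from a pBAD plasmid library in pooled LB shake-flask culture, induced with 0.3% L-arabinose, DNA abundance read by NGS, three biological replicates, DESeq2 with apeglm shrinkage.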

Sequence	shrunken log2 fold change
RRIRSRPPRLPRPRPRPQREPRP	-0.019
RRIRFRPPRLPRPRPRPCQRPRP	-0.124
RRIRYRPPRLPRPRPRPNMLPRP	-1.22
RRIRHRPPRLPRPRPRPISKPRP	-0.929
RRIRMRPPRLPRPRPRPEESPRP	0.113
RRIRWRPPRLPRPRPRPKDKPRP	0.077
RRIRLRPPRLPRPRPRPTTNPRP	-0.0886
RRIRNRPPRLPRPRPRPYGGPRP	-0.0102
RRIRPRPPRLPRPRPRPYFQPRP	-0.593
RRIRNRPPRLPRPRPRPRQHPRP	-0.103
RRIRPRPPRLPRPRPRPMKVPRP	-0.0686
RRIRKRPPRLPRPRPRPNIFPRP	-0.021
RRIRYRPPRLPRPRPRPAHHPRP	-0.602
RRIRWRPPRLPRPRPRPVFFPRP	0.238
RRIRTRPPRLPRPRPRPIFVPRP	0.144
RRIRSRPPRLPRPRPRPGGEPRP	0.585
RRIRWRPPRLPRPRPRPTRKPRP	-0.0294
RRIRLRPPRLPRPRPRPMGFPRP	-0.159
RRIRDRPPRLPRPRPRPTNMPRP	-0.00949
RRIRSRPPRLPRPRPRPAWTPRP	0.0161
RRIRVRPPRLPRPRPRPPRVPRP	0.305
RRIRQRPPRLPRPRPRPWIDPRP	-0.0353
RRIRHRPPRLPRPRPRPHEIPRP	-0.0135
RRIRYRPPRLPRPRPRPIVIPRP	-0.0448
RRIRNRPPRLPRPRPRPTIHPRP	-0.46

Sequence	shrunken log2 fold change
RRIRNRPPRLPRPRPRPITIPRP	-0.366
RRIRQRPPRLPRPRPRPKPVPRP	0.407
RRIRIRPPRLPRPRPRPHPCPRP	-0.736
RRIRRRPPRLPRPRPRPMIGPRP	-0.041
RRIRIRPPRLPRPRPRPIDNPRP	-0.0769
RRIRARPPRLPRPRPRPGQFPRP	0.109
RRIRDRPPRLPRPRPRPTRQPRP	0.228
RRIRIRPPRLPRPRPRPEGCPRP	-0.0356
RRIRVRPPRLPRPRPRPTFNPRP	0.127
RRIRTRPPRLPRPRPRPANGPRP	-0.213
RRIRGRPPRLPRPRPRPSLEPRP	0.827
RRIRRRPPRLPRPRPRPSAEPRP	0.716
RRIRFRPPRLPRPRPRPPTEPRP	0.438
RRIRSRPPRLPRPRPRPLQLPRP	-0.456
RRIRWRPPRLPRPRPRPEYEPRP	-0.0434
RRIRVRPPRLPRPRPRPCRAPRP	0.0373
RRIRPRPPRLPRPRPRPLQNPRP	-0.179
RRIRARPPRLPRPRPRPQADPRP	-0.119
RRIRMRPPRLPRPRPRPHAMPRP	-0.0135
RRIRNRPPRLPRPRPRPELMPRP	0.232
RRIRTRPPRLPRPRPRPDWLPRP	0.514
RRIRSRPPRLPRPRPRPCGPPRP	0.118
RRIRQRPPRLPRPRPRPWMAPRP	-0.147
RRIRCRPPRLPRPRPRPFWNPRP	-0.278
RRIRIRPPRLPRPRPRPRWKPRP	0.0818

Sequence	shrunken log2 fold change
RRIRTRPPRLPRPRPRPISTPRP	-0.504
RRIRQRPPRLPRPRPRPQYSPRP	0.124
RRIRLRPPRLPRPRPRPPSCPRP	0.341
RRIRFRPPRLPRPRPRPCMCPRP	-0.544
RRIRVRPPRLPRPRPRPDCQPRP	0.00516
RRIRWRPPRLPRPRPRPDGFPRP	-0.0231
RRIRYRPPRLPRPRPRPHTYPRP	-0.189
RRIRIRPPRLPRPRPRPVYVPRP	-1.58
RRIRNRPPRLPRPRPRPTEFPRP	-0.043
RRIRTRPPRLPRPRPRPWAPPRP	0.154
RRIRDRPPRLPRPRPRPLRTPRP	0.215
RRIRNRPPRLPRPRPRPQLKPRP	-0.0663
RRIRGRPPRLPRPRPRPYRTPRP	-0.108
RRIRDRPPRLPRPRPRPKHDPRP	-0.16
RRIRLRPPRLPRPRPRPDNPPRP	-0.231
RRIRYRPPRLPRPRPRPGWCPRP	-0.128
RRIRTRPPRLPRPRPRPARTPRP	0.381
RRIRVRPPRLPRPRPRPYCKPRP	-1.15
RRIRGRPPRLPRPRPRPYMMPRP	-0.232
RRIRKRPPRLPRPRPRPRDDPRP	0.365
RRIRMRPPRLPRPRPRPLDGPRP	0.844
RRIRQRPPRLPRPRPRPNYKPRP	-0.545
RRIRTRPPRLPRPRPRPPCWPRP	0.171
RRIRHRPPRLPRPRPRPQFQPRP	-0.511
RRIRWRPPRLPRPRPRPINVPRP	-0.0356

Sequence	shrunken log2 fold change
RRIRMRPPRLPRPRPRPQTVPRP	0.291
RRIRCRPPRLPRPRPRPPYFPRP	-0.07
RRIRRRPPRLPRPRPRPRASPRP	0.527
RRIRIRPPRLPRPRPRPVTSPRP	-0.0328
RRIRGRPPRLPRPRPRPKMKPRP	0.723
RRIRFRPPRLPRPRPRPKKSPRP	0.158
RRIRGRPPRLPRPRPRPRMWPRP	0.223
RRIRNRPPRLPRPRPRPKYPPRP	-0.137
RRIRGRPPRLPRPRPRPYWWPRP	-0.0995
RRIRYRPPRLPRPRPRPHNQPRP	-0.753
RRIRARPPRLPRPRPRPHKYPRP	-0.243
RRIRVRPPRLPRPRPRPCSPPRP	-0.137
RRIRERPPRLPRPRPRPNHYPRP	-1.57
RRIRSRPPRLPRPRPRPQGAPRP	2.34
RRIRERPPRLPRPRPRPLMQPRP	0.0114
RRIRSRPPRLPRPRPRPDTWPRP	-0.0193
RRIRWRPPRLPRPRPRPEAEPRP	1.53
RRIRLRPPRLPRPRPRPWVKPRP	-0.0122
RRIRMRPPRLPRPRPRPKVWPRP	1.04
RRIRCRPPRLPRPRPRPEPIPRP	-0.0787
RRIRPRPPRLPRPRPRPMTRPRP	0.0702
RRIRTRPPRLPRPRPRPPLRPRP	0.314
RRIRVRPPRLPRPRPRPISGPRP	-0.118
RRIRDRPPRLPRPRPRPFLAPRP	0.341
RRIRDRPPRLPRPRPRPPNVPRP	-0.0362

Sequence	shrunken log2 fold change
RRIRSRPPRLPRPRPRPMSCPRP	-0.067
RRIRRRPPRLPRPRPRPCVHPRP	-0.0733
RRIRRRPPRLPRPRPRPNPPPRP	0.451
RRIRSRPPRLPRPRPRPVWEPRP	0.118
RRIRPRPPRLPRPRPRPFAKPRP	0.0716
RRIRDRPPRLPRPRPRPVEEPRP	0.525
RRIRWRPPRLPRPRPRPFATPRP	0.834
RRIRWRPPRLPRPRPRPPWKPRP	0.24
RRIRWRPPRLPRPRPRPNLVPRP	-0.0198
RRIRRRPPRLPRPRPRPFISPRP	0.0236
RRIRSRPPRLPRPRPRPPSRPRP	0.263
RRIRLRPPRLPRPRPRPERTPRP	0.098
RRIRLRPPRLPRPRPRPTCKPRP	-0.0465
RRIRFRPPRLPRPRPRPTAAPRP	0.569
RRIRMRPPRLPRPRPRPKWYPRP	-0.171
RRIRVRPPRLPRPRPRPLREPRP	0.379
RRIRSRPPRLPRPRPRPFQKPRP	-0.00295
RRIRPRPPRLPRPRPRPCGHPRP	-0.0439
RRIRFRPPRLPRPRPRPFYDPRP	-0.0631
RRIRWRPPRLPRPRPRPIINPRP	-0.609
RRIRMRPPRLPRPRPRPWVAPRP	0.109
RRIRHRPPRLPRPRPRPEIKPRP	-0.264
RRIRARPPRLPRPRPRPQTEPRP	0.292
RRIRIRPPRLPRPRPRPQTMPRP	-0.0804
RRIRQRPPRLPRPRPRPPRCPRP	0.689

Sequence	shrunken log2 fold change
RRIRQRPPRLPRPRPRPKVNPRP	-0.0444
RRIRQRPPRLPRPRPRPMVNPRP	-0.2
RRIRMRPPRLPRPRPRPVIQPRP	0.257
RRIRTRPPRLPRPRPRPERSPRP	0.104
RRIRYRPPRLPRPRPRPNNTPRP	-1.32
RRIRIRPPRLPRPRPRPMCYPRP	-1
RRIRVRPPRLPRPRPRPLQPPRP	0.158
RRIRRRPPRLPRPRPRPHKAPRP	0.434
RRIRLRPPRLPRPRPRPLDGPRP	-0.0562
RRIRFRPPRLPRPRPRPTKIPRP	0.359
RRIRDRPPRLPRPRPRPWVIPRP	-0.00136
RRIRWRPPRLPRPRPRPTNTPRP	-0.284
RRIRLRPPRLPRPRPRPEVWPRP	0.276
RRIRYRPPRLPRPRPRPGWHPRP	0.00731
RRIRQRPPRLPRPRPRPWNNPRP	0.079
RRIRIRPPRLPRPRPRPRSEPRP	-0.0944
RRIRKRPPRLPRPRPRPCPHPRP	0.0793
RRIRWRPPRLPRPRPRPAHHPRP	-0.0193
RRIRGRPPRLPRPRPRPVYMPRP	0.361
RRIRPRPPRLPRPRPRPHRLPRP	-0.0226
RRIRMRPPRLPRPRPRPIIYPRP	-0.732
RRIRFRPPRLPRPRPRPLYEPRP	-0.664
RRIRWRPPRLPRPRPRPQFVPRP	-0.1
RRIRRRPPRLPRPRPRPGGGPRP	0.841
RRIRSRPPRLPRPRPRPYVSPRP	-0.136
